Data from US12612465B2, “Formulations comprising PCSK9 specific monoclonal antibodies” (Amgen Inc., priority 2012, dated 2026).
Entries after “also recorded” stand apart in the source; their conditions may differ.

Key:
PCSK9 [1] = target: T1, PCSK9 (Homo sapiens, UniProt Q8NBP7); assay: Phase 1 ascending single dose study in healthy subjects; assay type: in vivo
T1 construct: endogenous in cells; host or cells: human subjects, in vivo

PCSK9 [2] = target: T1, PCSK9; assay: Phase 1b ascending multiple dose study in hyperlipidemic subjects on a statin; assay type: in vivo
Description: The study had seven cohorts. […] Cohort 6 was conducted in hypercholesterolemic subjects on high doses of a statin (atorvastatin 80 mg or rosuvastatin 40 mg).

PCSK9 [3] = target: T1, PCSK9; assay: 12 week study in heterozygous familial hypercholesterolemia (Example 22); assay type: in vivo; conditions: HeFH, preliminary
Description: This study is a double-blind, randomized, stratified, placebo-controlled clinical trial evaluating the safety, tolerability, and efficacy of monocloncal antibody 21B12 in subjects having a diagnosis of HeFH. A total enrollment of 150 subjects is planned. […] Randomization will be stratified by screening LDL-C level (<130 mg/dL [3.4 mmol/L] vs ≥130 mg/dL) and ezetimibe use at baseline (yes vs no). Randomization should occur within 5-10 days of the screening LDL-C evaluation used to determine eligibility. Monoclonal antibody, 21B12, and placebo will be blinded. Study visits are at weeks 2, 4, 8, and 12. […] The end-of-study (EOS) visit and the last evaluation of lipids is at week 12.
Males and females, ≥18 to ≤75 years of age, and with a diagnosis of heterozygous familial hypercholesterolemia by the diagnostic criteria of the Simon Broome Register Group (SBRG), are eligible for this study. For enrollment, subjects must be on an approved statin, with stable dose(s) for all allowed (eg, ezetimibe, bile-acid sequestering resin, stanols, or regulatory-approved and marketed niacin (eg, Niaspan or Niacor)) lipid-regulating drugs for at least
4 weeks before LDL-C screening and, in the opinion of the investigator, not requiring uptitration. Fasting LDL-C must be ≥100 mg/dL (2.6 mmol/L) and fasting triglycerides ≤400 mg/dL (4.5 mmol/L) by central laboratory at screening.

PCSK9 [4] = assay: Serum lipids after a single subcutaneous dose in cynomolgus monkeys; assay type: in vivo, cynomolgus monkey; conditions: 0.5 mg/kg single SC
Description: Briefly, naive male cynomolgus monkeys were acclimated to their environment for at least 2 weeks prior to experimentation. Animals were randomized into treatment groups based on a pre-screen of their serum TC, HDL-C, LDL-C, and triglyceride levels, and their body weight. After 1 week, animals were fasted overnight, and bled from the peripheral vasculature (cephalic or saphenous vein), for measurement of baseline serum lipid levels at a time point designated T=0. […] Fasting blood samples were then collected from animals at designated time points over a 45 day period.
At specified time points, blood was collected from animals under overnight fasting conditions from the peripheral vasculature (cephalic or saphenous vein). Whole blood was allowed to coagulate for 30 minutes at room temperature. Following centrifugation at 3,000 rpm for 20 minutes, serum was collected. Direct serum cholesterol analysis was performed using the Cobas Integra 400 analyzer (Roche Diagnostics Inc, Indianapolis, Ind.). Apolipoprotein B serum levels were determined at specified time points (day 0, 3, 6, 15, 24 and 33) by Anilytics, Md., with the following methodology. A 17 μL aliquot of the sample (no preparation) was used for analysis with a Hitachi 717 Analyzer using a 6 points standard curve. If the initial value of the sample was higher than the standard curve linearity, then the sample was diluted and repeated with the result multiplied by the appropriate dilution factor. The reagents for the assay (APO-B Reagent Kit #86071, Antibody Set #86060, Control Set #86103) were obtained from DiaSorin (Stillwater, Minn.).
A statistical model that considers baseline as a covariate and treatment group as a fixed effect was fit to the log transformed response at each time point for LDL-C, HDL-C, TC, and triglycerides. Tukey's multiple comparison correction was applied to adjust the pair wise comparisons at each time point. The statistical significance was evaluated at alpha=0.05 using adjusted p-values.

[5] = cohorts 1-5, end of dosing interval
[6] = 350 mg Q4W SC, end of dosing interval

T1 sequence (Q8NBP7 153-692): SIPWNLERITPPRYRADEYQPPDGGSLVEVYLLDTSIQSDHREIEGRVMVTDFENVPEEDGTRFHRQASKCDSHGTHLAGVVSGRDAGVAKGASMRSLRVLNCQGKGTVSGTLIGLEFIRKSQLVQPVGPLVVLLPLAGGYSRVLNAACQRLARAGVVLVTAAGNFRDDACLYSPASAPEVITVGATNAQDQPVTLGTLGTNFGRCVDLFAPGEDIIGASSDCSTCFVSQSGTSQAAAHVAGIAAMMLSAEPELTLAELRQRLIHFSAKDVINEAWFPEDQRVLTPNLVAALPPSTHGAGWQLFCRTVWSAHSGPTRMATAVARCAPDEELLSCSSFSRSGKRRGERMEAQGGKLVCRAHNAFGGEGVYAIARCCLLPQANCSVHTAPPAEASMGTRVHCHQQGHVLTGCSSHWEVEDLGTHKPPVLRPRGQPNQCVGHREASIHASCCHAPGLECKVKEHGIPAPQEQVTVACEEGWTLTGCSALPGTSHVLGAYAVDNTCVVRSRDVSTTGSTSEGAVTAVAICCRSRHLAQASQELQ

B1: 21B12: human anti-PCSK9 monoclonal antibody, light/heavy variable region SEQ ID NO 23/49 (antibody, listed as Homo sapiens, V domains shown)
VH: QVQLVQSGAEVKKPGASVKVSCKASGYTLTSYGISWVRQAPGQGLEWMGWVSFYNGNTNYAQKLQGRGTMTTDPSTSTAYMELRSLRSDDTAVYYCARGYGMDVWGQGTTVTVSS
VL: QSALTQPASVSGSPGQSITISCTGTSSDVGGYNSVSWYQQHPGKAPKLMIYEVSNRPSGVSNRFSGSKSGNTASLTISGLQAEDEADYYCNSYTSTSMVFGGGTKLTVL
Q: Which “median AUC0-inf” value (PCSK9 [1]; 420 mg IV) does the source give for B1 here?
A: Its value is 1550 µg·days/mL.

Q: What about the “median maximum observed concentration (Cmax)” value (PCSK9 [1]; 420 mg IV) of the same molecule?
A: The value was 139 µg/mL.

Q: And the “anti-21B12 antibodies in serum” value (PCSK9 [1]; all 42 subjects who received 21B12)?
A: The value was “negative for anti-21B12 antibodies”.

Q: And the “subjects with treatment-emergent adverse events” value (PCSK9 [1]; any dose, 29 of 42 subjects)?
A: Its value is 69%.

Q: What about the “effects on laboratory variables, ECGs, vital signs” value (PCSK9 [1]; human, in vivo) of the same molecule?
A: The value was “no trends indicative of clinically important effects”.

Q: And the “LDL-C nadir observed after dosing” value (PCSK9 [1]; single dose, healthy subjects)?
A: The value was no more than 2 weeks.

Q: And the “suppression of PCSK9” value (PCSK9 [1]; single doses ≥70 mg SC)?
A: Its value is “Complete suppression of PCSK9”.

Q: What about the “suppression of PCSK9” value (PCSK9 [2]; cohort 3 (140 mg Q2W SC 3 times), preliminary) of the same molecule?
A: The value was “Near-complete suppression of PCSK9”.

Q: And the “maximum reduction in LDL-C versus placebo” value (PCSK9 [2]; cohort 6, high-dose statins)?
A: Its value is 73%.

Q: What about the “mean reduction in LDL-C vs placebo” value (PCSK9 [2]; cohort 6, high-dose statins, end of dosing interval after 3 biweekly doses) of the same molecule?
A: The value was 63%.

Q: And the “maximum LDL-C reduction versus placebo” value (PCSK9 [2]; cohort 7 heFH)?
A: Its value is 70%.

Q: And the “maximum reduction of ApoB versus placebo” value (PCSK9 [2]; cohort 7 heFH)?
A: The value was 57%.

Q: And the “maximum reduction of non-HDL cholesterol versus placebo” value (PCSK9 [2]; cohort 7 heFH)?
A: Its value is 67%.

Q: What about the “maximum total cholesterol reduction versus placebo” value (PCSK9 [2]; cohort 7 heFH) of the same molecule?
A: Its value is 47%.

Q: And the “mean reduction in LDL-C vs placebo” value (PCSK9 [2]; cohort 7 heFH, 140 mg SC Q2W 3 times, week 6)?
A: Its value is 65%.

Q: What about the “mean reduction in ApoB levels vs placebo” value (PCSK9 [2]; cohort 7 heFH, week 6) of the same molecule?
A: Its value is “up to 47%”.

Q: And the “mean reduction in lipoprotein a (Lp(a)) vs placebo” value (PCSK9 [2]; cohort 7 heFH, week 6)?
A: The value was 50%.

Q: And the “mean reduction in non-HDL cholesterol vs placebo” value (PCSK9 [2]; cohort 7 heFH, week 6)?
A: Its value is 61%.

Q: What about the “mean reduction in serum PCSK9 values vs placebo” value (PCSK9 [2]; cohort 7 heFH, week 6) of the same molecule?
A: The value was 78%.

Q: And the “mean reduction in total cholesterol vs placebo” value (PCSK9 [2]; cohort 7 heFH, week 6)?
A: The value was “up to 42%”.

Q: What about the “maximum ApoB reduction vs placebo” value (PCSK9 [2]; cohorts 1-5) of the same molecule?
A: Its value is “up to 59%”.

Q: And the “mean LDL-C reduction vs placebo at maximal reduction” value (PCSK9 [2]; cohorts 1-5, low to moderate statin doses)?
A: Its value is “up to 81%”.

Q: What about the “mean ApoB reduction vs placebo” value (PCSK9 [2]; [5]) of the same molecule?
A: Its value is “up to 54%”.

Q: What about the “mean reduction of PCSK9 levels vs placebo” value (PCSK9 [2]; [5]) of the same molecule?
A: Its value is “up to 94%”.

Q: And the “mean LDL-C reduction vs placebo at end of dosing interval” value (PCSK9 [2]; cohorts 1-5, week 6 after 3 biweekly SC doses)?
A: The value was no more than 75%.

Q: And the “mean LDL-C reduction at end of dosing interval” value (PCSK9 [2]; cohorts 1-5, week 8 after 2 every 4 week SC doses)?
A: The value was no more than 66%.

Q: What about the “mean Lp(a) reduction vs placebo” value (PCSK9 [2]; cohorts 1-6, end of dosing interval) of the same molecule?
A: Its value is “up to 43%”.

Q: And the “circulating PCSK9 after treatment” value (PCSK9 [2]; heFH subjects)?
A: The value was “undetectable”.

Q: What about the “plasma PCSK9” value (PCSK9 [2]; higher doses) of the same molecule?
A: The value was “undetectable”.

Q: And the “serious AEs” value (PCSK9 [2]; repeated SC doses over 6 weeks)?
A: The value was “no serious AEs”.

Q: And the “decrease in circulating LDL-C vs placebo” value (PCSK9 [2]; repeated SC doses over 6 weeks, low-to-moderate or high-dose statins)?
A: The value was “up to 81%”.

Q: What about the “LDL-C nadir observed after initial dosing” value (PCSK9 [2]; subjects on stable moderate statin doses, preliminary) of the same molecule?
A: The value was no more than 2 weeks.

Q: And the “LS mean percent increase from baseline in HDL-C” value (PCSK9 [3]; [6])?
A: Its value is 15.39%.

Q: And the “LS mean percent reduction from baseline in LDL-C” value (PCSK9 [3]; [6])?
A: The value was 38.46%.

Q: And the “LS mean percent reduction from baseline in Lp(a)” value (PCSK9 [3]; [6])?
A: Its value is 21.69%.

Q: And the “LS mean percent reduction from baseline in VLDL-C” value (PCSK9 [3]; [6])?
A: The value was 17.16%.

Q: And the “LS mean percent reduction from baseline in non-HDL cholesterol” value (PCSK9 [3]; [6])?
A: The value was 36.16%.

Q: What about the “LS mean percent reduction from baseline in total cholesterol” value (PCSK9 [3]; [6]) of the same molecule?
A: Its value is 24.82%.

Q: And the “LS mean percent reduction from baseline in triglycerides” value (PCSK9 [3]; [6])?
A: The value was 17.24%.

Q: What about the “LS mean percent increase from baseline in HDL-C” value (PCSK9 [3]; 420 mg Q4W SC) of the same molecule?
A: The value was 6.77%.

Q: And the “LS mean percent reduction from baseline in LDL-C” value (PCSK9 [3]; 420 mg Q4W SC)?
A: Its value is 45.68%.

Q: What about the “LS mean percent reduction from baseline in Lp(a)” value (PCSK9 [3]; 420 mg Q4W SC) of the same molecule?
A: Its value is 28.23%.

Q: And the “LS mean percent reduction from baseline in VLDL-C” value (PCSK9 [3]; 420 mg Q4W SC)?
A: Its value is 18.49%.

Q: What about the “LS mean percent reduction from baseline in non-HDL cholesterol” value (PCSK9 [3]; 420 mg Q4W SC) of the same molecule?
A: Its value is 41.81%.

Q: And the “LS mean percent reduction from baseline in total cholesterol” value (PCSK9 [3]; 420 mg Q4W SC)?
A: Its value is 29.45%.

Q: What about the “LS mean percent reduction from baseline in triglycerides” value (PCSK9 [3]; 420 mg Q4W SC) of the same molecule?
A: The value was 4.56%.

Q: What about the “LDL-C returned to levels similar to control animals” value (PCSK9 [4]) of the same molecule?
A: Its value is no more than 6 days.

Q: And the “TC returned to levels similar to control animals” value (PCSK9 [4])?
A: The value was no more than 4 days.

Q: What about the “maximal LDL-C lowering as compared to control animals” value (PCSK9 [4]) of the same molecule?
A: Its value is 64%.

Q: And the “maximal TC lowering as compared to control animals” value (PCSK9 [4])?
A: Its value is 20%.

Q: What about the “maximal lowering of LDL-C vs anti-KLH IgG2 control at the same time point (change)” value (PCSK9 [4]) of the same molecule?
A: Its value is −64%.

Q: And the “serum HDL-C vs anti-KLH IgG2 control” value (PCSK9 [4])?
A: The value was “statistically significant change in HDL-C at a single time point (day 18 following injection); also recorded: lowered HDL-C at a single time point, 18 days after injection”.

Q: And the “time of maximal LDL-C lowering after injection” value (PCSK9 [4])?
A: The value was 3 days.

Q: What about the “time of maximal TC lowering after injection” value (PCSK9 [4]) of the same molecule?
A: The value was 3 days.

Q: And the “triglycerides levels vs anti-KLH IgG2 control” value (PCSK9 [4])?
A: Its value is “No statistically significant changes”.

Q: And the “serum ApoB vs anti-KLH IgG2 control” value (PCSK9 [4]; days 3, 6, 15, 24 and 33)?
A: The value was “statistically significant lower ApoB levels at day 3 only”.
